From publication PMC4350284

Key:
STAT5A = STAT5A (UniProt P42230); experiment: biotin-peptide precipitation from lysate, GFP blot; conditions: reference: non-phosphorylated Src peptide; sites Y416
STAT5A-eYFP (murine) = STAT5A-eYFP (murine) (UniProt P42230)

Row | binding against the reference (STAT5A) | Substance | subcellular distribution of STAT5A-eYFP in HeLa T-REx FRT cells expressing vSrc^Y416F-dsRed, nucleus/cytoplasm (n/c) ratio (STAT5A-eYFP (murine))
1 | gained | Src-peptide (activation loop of cSrc (vSrc), Yes and Fyn) (from UniProt P00523) pY416 Src peptide | –
2 | – | vSrc^Y416F-dsRed (from UniProt P00524 1-526) (enzyme) | 1
